Test results published in IntAct's records for PubMed 26728129.

B1: Probable proton-coupled zinc antiporter SLC30A3 (Homo sapiens), Q99726 (parent)
chain: MEPSPAAGGLETTRLVSPRDRGGAGGSLRLKSLFTEPSEPLPEESKPVEMPFHHCHRDPLPPPGLTPERLHARRQLYAACAVCFVFMAGEVVGGYLAHSLAIMTDAAHLLADVGSMMGSLFSLWLSTRPATRTMTFGWHRSETLGALASVVSLWMVTGILLYLAFVRLLHSDYHIEGGAMLLTASIAVCANLLMAFVLHQAGPPHSHGSRGAEYAPLEEGPEEPLPLGNTSVRAAFVHVLGDLLQSFGVLAASILIYFKPQYKAADPISTFLFSICALGSTAPTLRDVLRILMEGTPRNVGFEPVRDTLLSVPGVRATHELHLWALTLTYHVASAHLAIDSTADPEAVLAEASSRLYSRFGFSSCTLQVEQYQPEMAQCLRCQEPPQA
partner: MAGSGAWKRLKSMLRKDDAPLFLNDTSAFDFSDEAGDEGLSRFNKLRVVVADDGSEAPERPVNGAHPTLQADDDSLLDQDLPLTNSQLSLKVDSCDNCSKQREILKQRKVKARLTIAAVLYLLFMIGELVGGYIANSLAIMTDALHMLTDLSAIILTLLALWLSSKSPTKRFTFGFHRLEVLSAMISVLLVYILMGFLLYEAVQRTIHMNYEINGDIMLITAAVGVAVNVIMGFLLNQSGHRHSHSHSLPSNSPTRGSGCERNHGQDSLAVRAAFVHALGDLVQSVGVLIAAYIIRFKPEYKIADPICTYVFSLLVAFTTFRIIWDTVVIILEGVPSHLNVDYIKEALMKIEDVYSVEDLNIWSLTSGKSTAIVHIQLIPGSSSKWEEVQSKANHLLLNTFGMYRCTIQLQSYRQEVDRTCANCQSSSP
B2: Probable proton-coupled zinc antiporter SLC30A3 (Homo sapiens), Q99726 (parent)
chain: B1 chain
partner: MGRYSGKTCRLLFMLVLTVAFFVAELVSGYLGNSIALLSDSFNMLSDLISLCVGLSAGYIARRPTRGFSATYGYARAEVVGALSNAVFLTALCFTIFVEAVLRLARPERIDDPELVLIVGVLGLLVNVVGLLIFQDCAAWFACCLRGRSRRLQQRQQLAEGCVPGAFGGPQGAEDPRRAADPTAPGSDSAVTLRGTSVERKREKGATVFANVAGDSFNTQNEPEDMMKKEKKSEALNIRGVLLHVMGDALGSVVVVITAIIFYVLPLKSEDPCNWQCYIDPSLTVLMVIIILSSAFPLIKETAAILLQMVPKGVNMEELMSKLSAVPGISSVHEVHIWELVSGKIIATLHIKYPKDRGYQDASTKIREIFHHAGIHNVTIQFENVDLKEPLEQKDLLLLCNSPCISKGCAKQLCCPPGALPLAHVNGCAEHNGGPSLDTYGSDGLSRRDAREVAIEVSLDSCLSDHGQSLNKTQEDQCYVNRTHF
B3: Calcium/manganese antiporter SLC30A10 (Homo sapiens), Q6XR72 (parent)
chain: B2 partner
partner: B1 chain

Variants of: B1
Details: with znt4_human SLC30A4, O14863

Variant | effect of a mutation on the interaction
MEPSPAAGGLETTRLVSPRDRGGAGGSLRLKSLFTEPSEPLPEESKPVEMPFHHCHRDPLPPPGLTPERLHARRQLYAACAVCFVFMAGEVVGGYLAHSLAIMTDAAHLLADVGSMMGSLFSLWLSTRPATRTMTFGWHRSETLGALASVVSLWMVTGILLYLAFVRLLHSDYHIEGGAMLLTASIAVCANLLMAFVLHQAGPPHSHGSRGAEYAPLEEGPEEPLPLGNTSVRAAFVHVLGDLLQSFGVLAASILIFFKPQYKAADPISTFLFSICALGSTAPTLRDVLRILMEGTPRNVGFEPVRDTLLSVPGVRATHELHLWALTLTYHVASAHLAIDSTADPEAVLAEASSRLYSRFGFSSCTLQVEQYQPEMAQCLRCQEPPQA [Y257F] | decreasing interaction strength
MEPSPAAGGLETTRLVSPRDRGGAGGSLRLKSLFTEPSEPLPEESKPVEMPFHHCHRDPLPPPGLTPERLHARRQLYAACAVCFVFMAGEVVGGYLAHSLAIMTDAAHLLADVGSMMGSLFSLWLSTRPATRTMTFGWHRSETLGALASVVSLWMVTGILLYLAFVRLLHSDYHIEGGAMLLTASIAVCANLLMAFVLHQAGPPHSHGSRGAEYAPLEEGPEEPLPLGNTSVRAAFVHVLGDLLQSFGVLAASILIYFKPQFKAADPISTFLFSICALGSTAPTLRDVLRILMEGTPRNVGFEPVRDTLLSVPGVRATHELHLWALTLTYHVASAHLAIDSTADPEAVLAEASSRLYSRFGFSSCTLQVEQYQPEMAQCLRCQEPPQA [Y262F] | decreasing interaction strength

Variants of: B2
Details: with znt10_human SLC30A10, Q6XR72

Variant | effect of a mutation on the interaction
MEPSPAAGGLETTRLVSPRDRGGAGGSLRLKSLFTEPSEPLPEESKPVEMPFHHCHRDPLPPPGLTPERLHARRQLYAACAVCFVFMAGEVVGGYLAHSLAIMTDAAHLLADVGSMMGSLFSLWLSTRPATRTMTFGWHRSETLGALASVVSLWMVTGILLYLAFVRLLHSDYHIEGGAMLLTASIAVCANLLMAFVLHQAGPPHSHGSRGAEYAPLEEGPEEPLPLGNTSVRAAFVHVLGDLLQSFGVLAASILIFFKPQYKAADPISTFLFSICALGSTAPTLRDVLRILMEGTPRNVGFEPVRDTLLSVPGVRATHELHLWALTLTYHVASAHLAIDSTADPEAVLAEASSRLYSRFGFSSCTLQVEQYQPEMAQCLRCQEPPQA [Y257F] | decreasing interaction strength
MEPSPAAGGLETTRLVSPRDRGGAGGSLRLKSLFTEPSEPLPEESKPVEMPFHHCHRDPLPPPGLTPERLHARRQLYAACAVCFVFMAGEVVGGYLAHSLAIMTDAAHLLADVGSMMGSLFSLWLSTRPATRTMTFGWHRSETLGALASVVSLWMVTGILLYLAFVRLLHSDYHIEGGAMLLTASIAVCANLLMAFVLHQAGPPHSHGSRGAEYAPLEEGPEEPLPLGNTSVRAAFVHVLGDLLQSFGVLAASILIYFKPQFKAADPISTFLFSICALGSTAPTLRDVLRILMEGTPRNVGFEPVRDTLLSVPGVRATHELHLWALTLTYHVASAHLAIDSTADPEAVLAEASSRLYSRFGFSSCTLQVEQYQPEMAQCLRCQEPPQA [Y262F] | decreasing interaction strength

Variants of: B3
Details: with znt3_human SLC30A3, Q99726

Variant | effect of a mutation on the interaction
MGRFSGKTCRLLFMLVLTVAFFVAELVSGYLGNSIALLSDSFNMLSDLISLCVGLSAGYIARRPTRGFSATYGYARAEVVGALSNAVFLTALCFTIFVEAVLRLARPERIDDPELVLIVGVLGLLVNVVGLLIFQDCAAWFACCLRGRSRRLQQRQQLAEGCVPGAFGGPQGAEDPRRAADPTAPGSDSAVTLRGTSVERKREKGATVFANVAGDSFNTQNEPEDMMKKEKKSEALNIRGVLLHVMGDALGSVVVVITAIIFYVLPLKSEDPCNWQCYIDPSLTVLMVIIILSSAFPLIKETAAILLQMVPKGVNMEELMSKLSAVPGISSVHEVHIWELVSGKIIATLHIKYPKDRGYQDASTKIREIFHHAGIHNVTIQFENVDLKEPLEQKDLLLLCNSPCISKGCAKQLCCPPGALPLAHVNGCAEHNGGPSLDTYGSDGLSRRDAREVAIEVSLDSCLSDHGQSLNKTQEDQCYVNRTHF [Y4F] | decreasing interaction strength
